From patent US20100015126A1, “Methods of Binding of Cross-Beta Structures By Chaperones” (priority 2006, published 2010)

How the values were obtained:
[1] = molecular target: Hypothetical protein/Heat shock 70 kDa protein 5 (glucose-regulated protein, 78 kDa = GRP78 = BiP = HSPA5), as identified in eluates (human) (UniProt P11021); assay: BiP-Sepharose pull-down, RA synovial fluid sample 5B, 1 M NaCl eluate, MS; BiP may stem from the column
[2] = molecular target: Isoform A of Proteoglycan-4 precursor (human) (UniProt Q92954); assay: BiP-Sepharose pull-down, RA synovial fluid sample 1B, 1 M NaCl eluate, MS; may be indirect
[3] = molecular target: FLJ00385 protein (Fragment), immunoglobulin heavy constant mu (human) (UniProt P01871); assay: as above
[4] = molecular target: Apolipoprotein E precursor/Apolipoprotein E/Apolipoprotein E3 (Fragment) (human) (UniProt P02649); assay: as above
[5] = molecular target: Vitronectin precursor (Serum-spreading factor/S-protein) (human) (UniProt P04004); assay: as above
[6] = molecular target: Isoform 1 of Fibrinogen alpha chain precursor (human) (UniProt P02671); assay: as above
[7] = molecular target: Histidine-rich glycoprotein precursor (human) (UniProt P04196); assay: as above
Sequence of Histidine-rich glycoprotein precursor (human) (P04196 19-525 limits assumed): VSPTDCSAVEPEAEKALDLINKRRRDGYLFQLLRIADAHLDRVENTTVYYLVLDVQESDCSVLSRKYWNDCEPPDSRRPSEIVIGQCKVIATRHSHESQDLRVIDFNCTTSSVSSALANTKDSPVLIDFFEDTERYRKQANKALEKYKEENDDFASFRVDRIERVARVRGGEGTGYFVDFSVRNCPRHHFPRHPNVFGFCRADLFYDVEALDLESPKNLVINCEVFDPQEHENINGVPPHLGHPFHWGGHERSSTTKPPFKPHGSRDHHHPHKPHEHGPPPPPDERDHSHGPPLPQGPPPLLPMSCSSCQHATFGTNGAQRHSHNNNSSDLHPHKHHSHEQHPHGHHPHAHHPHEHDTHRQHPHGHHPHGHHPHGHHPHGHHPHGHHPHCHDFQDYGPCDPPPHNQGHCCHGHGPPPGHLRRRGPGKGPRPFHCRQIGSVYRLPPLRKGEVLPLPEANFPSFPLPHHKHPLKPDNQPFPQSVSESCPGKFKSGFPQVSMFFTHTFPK

[8] = molecular target: Apolipoprotein A-II precursor (human) (UniProt P02652); assay: as above
[9] = molecular target: Apolipoprotein A-I precursor (human) (UniProt P02647); assay: as above
[10] = molecular target: Galectin-3-binding protein precursor (human) (UniProt Q08380); assay: as above
[11] = molecular target: Hypothetical protein DKFZp686I04196 (Fragment)/Immunoglobulin heavy constant gamma 2 (G2m marker)/Ig gamma-2 chain C region (human) [IgG part: P01859]; assay: as above
[12] = molecular target: Single-chain Fv (Fragment), Ig heavy chain V-III region TRO (human) (UniProt P01762); assay: as above
[13] = molecular target: Clusterin precursor (human) (UniProt P10909); assay: as above
[14] = molecular target: Histone H2B type 2-E (human) (UniProt Q16778); assay: as above
[15] = molecular target: IGKV1-5 protein, immunoglobulin kappa variable 1-5 (human) (UniProt P01602); assay: as above
[16] = molecular target: Haptoglobin precursor (human) (UniProt P00738); assay: as above
[17] = molecular target: fibronectin 1 isoform 4 preproprotein (human) (UniProt P02751); assay: as above
Sequence of fibronectin 1 isoform 4 preproprotein (human) (P02751 other isoform, or with tags, fused parts or gaps limits assumed): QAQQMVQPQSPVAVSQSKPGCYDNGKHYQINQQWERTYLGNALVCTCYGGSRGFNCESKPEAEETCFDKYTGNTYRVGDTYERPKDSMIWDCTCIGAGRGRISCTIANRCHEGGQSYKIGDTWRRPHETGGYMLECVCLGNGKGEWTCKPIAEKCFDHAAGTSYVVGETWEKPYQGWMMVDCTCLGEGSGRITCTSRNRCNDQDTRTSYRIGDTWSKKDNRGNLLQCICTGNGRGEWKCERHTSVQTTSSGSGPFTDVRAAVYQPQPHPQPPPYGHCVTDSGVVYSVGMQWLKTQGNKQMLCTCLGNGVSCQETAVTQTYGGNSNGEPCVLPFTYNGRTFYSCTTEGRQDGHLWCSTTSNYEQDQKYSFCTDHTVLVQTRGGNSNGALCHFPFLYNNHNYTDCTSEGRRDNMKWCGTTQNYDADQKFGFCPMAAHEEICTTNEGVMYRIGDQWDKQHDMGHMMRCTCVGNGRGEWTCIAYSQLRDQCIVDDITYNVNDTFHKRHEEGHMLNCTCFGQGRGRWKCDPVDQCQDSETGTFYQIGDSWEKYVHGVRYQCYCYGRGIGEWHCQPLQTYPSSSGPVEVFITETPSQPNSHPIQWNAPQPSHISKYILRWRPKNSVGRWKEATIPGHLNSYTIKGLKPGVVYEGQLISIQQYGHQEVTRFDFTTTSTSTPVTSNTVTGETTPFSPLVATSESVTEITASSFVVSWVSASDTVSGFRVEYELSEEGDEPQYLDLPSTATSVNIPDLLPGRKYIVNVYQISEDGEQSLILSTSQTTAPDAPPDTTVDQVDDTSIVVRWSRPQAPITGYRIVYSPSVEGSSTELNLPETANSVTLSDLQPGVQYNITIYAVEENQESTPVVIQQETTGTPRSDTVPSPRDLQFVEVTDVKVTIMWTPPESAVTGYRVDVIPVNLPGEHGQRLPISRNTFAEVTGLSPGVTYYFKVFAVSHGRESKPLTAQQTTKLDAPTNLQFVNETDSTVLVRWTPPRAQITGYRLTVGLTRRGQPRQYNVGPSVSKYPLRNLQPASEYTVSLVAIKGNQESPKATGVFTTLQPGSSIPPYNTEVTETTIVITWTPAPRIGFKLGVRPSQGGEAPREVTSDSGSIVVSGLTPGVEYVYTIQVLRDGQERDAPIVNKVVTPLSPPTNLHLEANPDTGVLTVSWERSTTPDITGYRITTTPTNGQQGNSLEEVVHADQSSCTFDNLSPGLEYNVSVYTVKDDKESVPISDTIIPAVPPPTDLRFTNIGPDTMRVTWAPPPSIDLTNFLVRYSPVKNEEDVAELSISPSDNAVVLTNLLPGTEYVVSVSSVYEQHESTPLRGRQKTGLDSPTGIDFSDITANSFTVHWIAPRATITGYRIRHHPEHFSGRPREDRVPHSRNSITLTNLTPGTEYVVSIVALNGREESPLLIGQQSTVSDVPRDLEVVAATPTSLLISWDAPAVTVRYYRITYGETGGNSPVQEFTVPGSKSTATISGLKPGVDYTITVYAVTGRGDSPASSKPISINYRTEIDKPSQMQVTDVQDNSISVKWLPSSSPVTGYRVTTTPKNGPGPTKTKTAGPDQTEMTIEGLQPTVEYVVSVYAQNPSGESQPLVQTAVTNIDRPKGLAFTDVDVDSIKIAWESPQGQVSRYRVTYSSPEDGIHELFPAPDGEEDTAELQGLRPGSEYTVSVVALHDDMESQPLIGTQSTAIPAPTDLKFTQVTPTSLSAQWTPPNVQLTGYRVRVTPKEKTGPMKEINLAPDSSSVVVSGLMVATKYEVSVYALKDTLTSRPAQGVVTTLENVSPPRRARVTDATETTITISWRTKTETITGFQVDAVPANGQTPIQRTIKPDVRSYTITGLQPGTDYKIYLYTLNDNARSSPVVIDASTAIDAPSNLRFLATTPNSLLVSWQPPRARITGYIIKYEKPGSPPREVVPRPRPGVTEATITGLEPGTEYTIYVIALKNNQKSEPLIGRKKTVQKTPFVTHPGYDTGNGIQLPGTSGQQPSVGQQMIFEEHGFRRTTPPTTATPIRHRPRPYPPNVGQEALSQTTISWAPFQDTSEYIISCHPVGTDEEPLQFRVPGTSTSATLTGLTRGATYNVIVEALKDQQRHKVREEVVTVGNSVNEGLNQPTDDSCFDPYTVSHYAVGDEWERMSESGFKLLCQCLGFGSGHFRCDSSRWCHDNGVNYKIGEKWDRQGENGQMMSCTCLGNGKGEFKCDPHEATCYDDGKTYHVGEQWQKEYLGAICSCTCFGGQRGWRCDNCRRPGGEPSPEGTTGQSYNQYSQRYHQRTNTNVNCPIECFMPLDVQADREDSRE

[18] = molecular target: IGHM protein, coagulation factor VII (serum prothrombin conversion accelerator) (human) (UniProt P08709); assay: as above
[19] = molecular target: IGHM protein, immunoglobulin heavy chain mu (heavy chain disease protein) (human) (UniProt P01871); assay: as above
[20] = molecular target: IGHG4 protein, immunoglobulin heavy constant gamma 4 (human) [IgG part: P01861]; assay: as above
[21] = molecular target: Isoform H17 of Myeloperoxidase precursor (human) (UniProt P05164); assay: as above
[22] = molecular target: 187 kDa protein/Complement component 3 (human) (UniProt P01024); assay: as above
Sequence of 187 kDa protein/Complement component 3 (human) (P01024 23-1663 limits assumed): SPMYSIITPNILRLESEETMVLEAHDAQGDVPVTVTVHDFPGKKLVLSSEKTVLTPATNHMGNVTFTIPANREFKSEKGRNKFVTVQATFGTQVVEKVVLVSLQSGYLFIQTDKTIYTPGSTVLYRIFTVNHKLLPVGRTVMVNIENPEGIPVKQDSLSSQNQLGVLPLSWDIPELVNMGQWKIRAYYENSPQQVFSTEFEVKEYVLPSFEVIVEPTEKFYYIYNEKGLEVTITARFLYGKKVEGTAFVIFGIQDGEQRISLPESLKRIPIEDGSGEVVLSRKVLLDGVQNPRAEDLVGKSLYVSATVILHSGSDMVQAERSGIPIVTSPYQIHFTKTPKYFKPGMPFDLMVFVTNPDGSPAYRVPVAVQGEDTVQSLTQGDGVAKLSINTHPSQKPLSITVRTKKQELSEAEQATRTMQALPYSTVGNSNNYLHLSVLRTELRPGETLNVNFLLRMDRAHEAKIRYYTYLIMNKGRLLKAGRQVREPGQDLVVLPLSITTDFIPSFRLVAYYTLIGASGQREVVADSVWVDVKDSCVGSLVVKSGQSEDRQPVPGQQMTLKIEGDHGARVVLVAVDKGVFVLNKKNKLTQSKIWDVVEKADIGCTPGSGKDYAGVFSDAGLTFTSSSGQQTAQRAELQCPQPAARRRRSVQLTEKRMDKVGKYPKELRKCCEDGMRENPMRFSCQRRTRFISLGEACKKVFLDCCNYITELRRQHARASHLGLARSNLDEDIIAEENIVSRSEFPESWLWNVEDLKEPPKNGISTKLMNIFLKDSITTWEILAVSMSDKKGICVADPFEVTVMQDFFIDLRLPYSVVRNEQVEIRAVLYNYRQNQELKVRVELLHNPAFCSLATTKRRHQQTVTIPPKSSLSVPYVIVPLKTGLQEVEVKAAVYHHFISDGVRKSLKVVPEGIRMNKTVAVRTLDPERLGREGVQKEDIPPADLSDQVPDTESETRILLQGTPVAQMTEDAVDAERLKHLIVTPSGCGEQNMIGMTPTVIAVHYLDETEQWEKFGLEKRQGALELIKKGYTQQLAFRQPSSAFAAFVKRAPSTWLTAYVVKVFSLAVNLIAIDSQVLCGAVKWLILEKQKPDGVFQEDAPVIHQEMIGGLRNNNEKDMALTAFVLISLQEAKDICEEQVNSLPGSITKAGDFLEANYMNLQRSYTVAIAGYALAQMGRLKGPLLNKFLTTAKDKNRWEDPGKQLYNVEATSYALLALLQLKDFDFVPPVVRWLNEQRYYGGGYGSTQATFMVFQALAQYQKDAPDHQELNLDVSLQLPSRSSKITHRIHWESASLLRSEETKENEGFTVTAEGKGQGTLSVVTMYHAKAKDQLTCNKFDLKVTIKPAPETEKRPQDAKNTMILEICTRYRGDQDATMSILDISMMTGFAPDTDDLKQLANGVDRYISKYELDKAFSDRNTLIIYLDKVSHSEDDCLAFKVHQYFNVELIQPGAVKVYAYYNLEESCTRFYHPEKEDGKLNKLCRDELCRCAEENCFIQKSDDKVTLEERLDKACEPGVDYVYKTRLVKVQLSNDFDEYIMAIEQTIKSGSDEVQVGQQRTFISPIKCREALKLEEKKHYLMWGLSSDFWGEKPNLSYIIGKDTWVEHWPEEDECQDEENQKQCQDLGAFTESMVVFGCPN

[23] = molecular target: Apolipoprotein A-IV precursor (human) (UniProt P06727); assay: as above
[24] = molecular target: Vitronectin precursor (Serum-spreading factor/S-protein) (human) (UniProt P04004); assay: BiP-Sepharose pull-down, RA synovial fluid sample 5B, 1 M NaCl eluate, MS; may be indirect
[25] = molecular target: Histidine-rich glycoprotein precursor (human) (UniProt P04196); assay: as above
[26] = molecular target: Serotransferrin precursor (human) (UniProt P02787); assay: as above
[27] = molecular target: 25 kDa protein/immunoglobulin lambda chain/rheumatoid factor G9 light chain (lambda V3)/IGLC1 protein (human) (UniProt P0CG04); assay: as above
[28] = molecular target: Heat shock 70 kDa protein 1L (human) (UniProt P34931); assay: as above
[29] = molecular target: fibronectin 1 isoform 4 preproprotein (human) (UniProt P02751); assay: as above
[30] = molecular target: 187 kDa protein/Complement component 3 (human) (UniProt P01024); assay: as above

Sequence of recombinant human BiP with C-terminal linker, FLAG-tag and His-tag (BiP-FLAG-His) (P11021 other isoform, or with tags, fused parts or gaps): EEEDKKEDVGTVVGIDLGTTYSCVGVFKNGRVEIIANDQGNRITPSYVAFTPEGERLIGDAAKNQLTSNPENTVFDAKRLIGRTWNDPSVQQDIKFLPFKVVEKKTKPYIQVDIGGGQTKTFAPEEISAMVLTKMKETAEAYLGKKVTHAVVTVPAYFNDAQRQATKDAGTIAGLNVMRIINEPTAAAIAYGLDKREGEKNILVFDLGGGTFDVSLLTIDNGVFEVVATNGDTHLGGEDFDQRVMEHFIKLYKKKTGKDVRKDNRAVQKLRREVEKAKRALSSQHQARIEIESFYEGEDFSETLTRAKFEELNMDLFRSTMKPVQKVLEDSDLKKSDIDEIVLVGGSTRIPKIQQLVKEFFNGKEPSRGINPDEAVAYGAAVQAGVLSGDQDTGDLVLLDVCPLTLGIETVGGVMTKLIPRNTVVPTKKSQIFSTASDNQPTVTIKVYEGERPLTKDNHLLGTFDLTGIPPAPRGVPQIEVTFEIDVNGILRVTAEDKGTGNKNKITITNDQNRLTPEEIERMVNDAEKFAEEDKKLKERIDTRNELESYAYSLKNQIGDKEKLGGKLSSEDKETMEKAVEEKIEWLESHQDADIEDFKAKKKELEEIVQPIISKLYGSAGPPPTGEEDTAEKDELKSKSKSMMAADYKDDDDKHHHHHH

Q: For “recombinant human BiP with C-terminal linker, FLAG-tag and His-tag (BiP-FLAG-His) (from UniProt P11021 19-654)”, which # of unique peptides [1] is on record?
A: 10 peptides

Q: And the # of unique peptides [2]?
A: 2 peptides

Q: And the # of unique peptides [3]?
A: 1 peptides

Q: And the # of unique peptides [4]?
A: 1 peptides

Q: What about the # of unique peptides [5] of the same substance?
A: 1 peptides

Q: And the # of unique peptides [6]?
A: 3 peptides

Q: And the # of unique peptides [7]?
A: 2 peptides

Q: What about the # of unique peptides [8] of the same substance?
A: 1 peptides

Q: And the # of unique peptides [9]?
A: 3 peptides

Q: What about the # of unique peptides [10] of the same substance?
A: 1 peptides

Q: What about the # of unique peptides [11] of the same substance?
A: 1 peptides

Q: What about the # of unique peptides [12] of the same substance?
A: 2 peptides

Q: And the # of unique peptides [13]?
A: 1 peptides

Q: And the # of unique peptides [14]?
A: 2 peptides

Q: And the # of unique peptides [15]?
A: 3 peptides

Q: And the # of unique peptides [16]?
A: 1 peptides

Q: And the # of unique peptides [17]?
A: 10 peptides

Q: And the # of unique peptides [18]?
A: 2 peptides

Q: And the # of unique peptides [19]?
A: 3 peptides

Q: What about the # of unique peptides [20] of the same substance?
A: 4 peptides

Q: And the # of unique peptides [21]?
A: 1 peptides

Q: What about the # of unique peptides [22] of the same substance?
A: 2 peptides

Q: What about the # of unique peptides [23] of the same substance?
A: 3 peptides

Q: And the # of unique peptides [24]?
A: 2 peptides

Q: What about the # of unique peptides [25] of the same substance?
A: 1 peptides

Q: What about the # of unique peptides [26] of the same substance?
A: 1 peptides

Q: And the # of unique peptides [27]?
A: 1 peptides

Q: And the # of unique peptides [28]?
A: 1 peptides

Q: And the # of unique peptides [29]?
A: 2 peptides

Q: And the # of unique peptides [30]?
A: 1 peptides
